This data set concerns the target integrin α5β1 (in human FFPE glioblastoma sections) (human, UniProt P08648;P05556 42-1049;21-798). Description: aptahistofluorescence; FFPE GBM, 1 or 2 µM aptamer; frozen sections too low to detect; Flow cytometry: 300,000 cells detached with 0.2 M EDTA, 30 min with Cy5-aptamer; tissue: selection buffer, 2% BSA +/- 100 µg/mL yeast tRNA block, 1 h on ice; aptamers denatured at 95 °C 3 min then ice 5 min; buffer composition, salt and pH not given in material. Conditions: protein: native; copies: 1;1; label: 3'-Cy5. (In flow cytometry, cells or beads pass a laser one at a time.)

Sequence of integrin α5β1 (in human FFPE glioblastoma sections) (P08648 42-1049, chain 1 of 2): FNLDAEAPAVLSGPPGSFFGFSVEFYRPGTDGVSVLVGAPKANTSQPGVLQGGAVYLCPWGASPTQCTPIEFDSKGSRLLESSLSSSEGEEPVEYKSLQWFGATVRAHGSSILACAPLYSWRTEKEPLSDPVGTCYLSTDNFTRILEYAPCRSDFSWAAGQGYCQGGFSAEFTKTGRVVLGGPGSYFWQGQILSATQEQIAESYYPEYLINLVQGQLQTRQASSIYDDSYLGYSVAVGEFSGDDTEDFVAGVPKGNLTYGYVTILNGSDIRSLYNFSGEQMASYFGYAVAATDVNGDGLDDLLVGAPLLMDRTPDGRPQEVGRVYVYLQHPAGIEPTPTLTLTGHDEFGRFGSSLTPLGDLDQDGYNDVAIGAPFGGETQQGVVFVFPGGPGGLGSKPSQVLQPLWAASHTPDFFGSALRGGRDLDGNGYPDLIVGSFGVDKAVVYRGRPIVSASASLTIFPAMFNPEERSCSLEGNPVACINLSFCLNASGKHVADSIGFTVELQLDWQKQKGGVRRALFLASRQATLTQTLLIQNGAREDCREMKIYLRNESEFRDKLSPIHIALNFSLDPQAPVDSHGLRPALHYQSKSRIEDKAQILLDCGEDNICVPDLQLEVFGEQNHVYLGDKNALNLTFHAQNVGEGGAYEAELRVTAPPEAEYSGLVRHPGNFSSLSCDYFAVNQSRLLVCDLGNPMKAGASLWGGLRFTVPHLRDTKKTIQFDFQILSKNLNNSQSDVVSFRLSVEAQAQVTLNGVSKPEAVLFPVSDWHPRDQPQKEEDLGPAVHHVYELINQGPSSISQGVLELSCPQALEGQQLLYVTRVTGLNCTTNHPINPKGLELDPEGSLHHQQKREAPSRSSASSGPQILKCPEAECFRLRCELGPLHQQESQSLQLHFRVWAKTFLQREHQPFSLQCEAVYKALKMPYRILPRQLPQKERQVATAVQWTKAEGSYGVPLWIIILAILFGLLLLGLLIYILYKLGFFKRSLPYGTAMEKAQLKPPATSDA
Sequence of integrin α5β1 (in human FFPE glioblastoma sections) (P05556 21-798, chain 2 of 2): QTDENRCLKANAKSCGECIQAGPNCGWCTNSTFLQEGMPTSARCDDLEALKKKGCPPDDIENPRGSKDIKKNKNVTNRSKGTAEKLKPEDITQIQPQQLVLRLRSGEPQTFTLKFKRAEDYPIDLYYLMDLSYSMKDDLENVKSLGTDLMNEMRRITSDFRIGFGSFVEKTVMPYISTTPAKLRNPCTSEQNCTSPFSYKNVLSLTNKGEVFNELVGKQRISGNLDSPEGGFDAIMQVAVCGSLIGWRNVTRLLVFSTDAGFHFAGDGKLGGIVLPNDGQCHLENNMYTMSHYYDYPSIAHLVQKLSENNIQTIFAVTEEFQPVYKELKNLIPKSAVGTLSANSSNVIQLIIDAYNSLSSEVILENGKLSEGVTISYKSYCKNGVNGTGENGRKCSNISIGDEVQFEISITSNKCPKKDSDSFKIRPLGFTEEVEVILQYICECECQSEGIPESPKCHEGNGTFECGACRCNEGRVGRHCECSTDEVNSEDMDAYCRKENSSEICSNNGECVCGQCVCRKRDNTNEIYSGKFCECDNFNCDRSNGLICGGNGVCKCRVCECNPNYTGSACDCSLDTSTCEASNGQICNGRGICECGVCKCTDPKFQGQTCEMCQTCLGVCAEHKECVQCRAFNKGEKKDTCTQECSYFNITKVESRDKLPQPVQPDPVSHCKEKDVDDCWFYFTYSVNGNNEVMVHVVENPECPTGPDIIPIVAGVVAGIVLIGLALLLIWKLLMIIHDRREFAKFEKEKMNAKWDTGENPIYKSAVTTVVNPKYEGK

B1: H02-Cy5 (XNA)
RNA: GGUUACCAGCCUUCACUGCGGACGGACAGAGAGUGCAACCUGCCGUGCCGCACCACGGUCGGUCACAC
modifications: 2'-fluoro pyrimidines (2'F-RNA)
B1: the binding result was “binds”.

The record behind these values is PMC9609998, “Bioimaging Nucleic-Acid Aptamers with Different Specificities in Human Glioblastoma Tissues Highlights Tumoral Heterogeneity”.
